Results reported in paper PMC12096946, “Structural analysis of genetic variants of the human tumor suppressor PALB2 coiled-coil domain” (Bioscience Reports, 2025).
Numbering of substitutions follows the chain as printed. Names may count otherwise.

B1: human PALB2 coiled-coil domain (PALB2cc, residues 6-42) (domain or fragment, UniProt Q86YC2 6-42, looked up)
chain: GKPLSCEEKEKLKEKLAFLKREYSKTLARLQRAQRAE
notes: PALB2 (partner and localizer of BRCA2), human, N-terminal coiled-coil domain, residues 6-42 of the 1186-amino-acid protein; A methionine was introduced before the domain for CNBr cleavage of the His-GB1 tag; The NMR sample was uniformly 13C,15N labelled; The methods of the CD experiments say that PALB2cc peptides were synthesized; also called wt-PALB2cc; source: E. coli BL21-DE3, purified …
B2: S10E, S29E-PALB2cc (peptide, UniProt Q86YC2 6-42, looked up)
chain: B1 chain with S5E, S24E
notes: also called S10E, S29E phosphomimetic PALB2 coiled-coil domain; source: synthetic peptide (Lifetein technologies)

Biological target: the molecule itself
Test: SEC; analytical size exclusion chromatography, Superdex75 column; 50 mM Na2HPO4, 150 mM NaCl, 5 mM DTT, pH 6.5; mass from molecular weight standards

Protein	stoichiometry N	binding result
B1	2	–
B2	–	binds
